Laboratory results as given in article PMC6205638, “Exploring natural genetic variation in tomato sucrose synthases on the basis of increased kinetic properties” (PLoS ONE, 2018).

Target: Tomato sucrose synthase SuSy3-haplotype#1 (cv Moneymaker) (S. lycopersicum cv Moneymaker)
Test: native gel or EMSA; Native PAGE on Mini-PROTEAN TGX gel 4-20% of the IMAC-purified product; size estimated against a prestained protein ladder

stoichiometry N: 4
Substance: Tomato sucrose synthase SuSy3-haplotype#1 (cv Moneymaker) (enzyme)
